Measurements published in publication PMC2770678 (Nucleic Acids Research, 2009).

Target: T1, P. furiosus AP endonuclease (PfuAPE), PF0258 gene product, His-tagged recombinant (Pyrococcus furiosus, UniProt Q8U437 1-281)
T1 sequence (looked up): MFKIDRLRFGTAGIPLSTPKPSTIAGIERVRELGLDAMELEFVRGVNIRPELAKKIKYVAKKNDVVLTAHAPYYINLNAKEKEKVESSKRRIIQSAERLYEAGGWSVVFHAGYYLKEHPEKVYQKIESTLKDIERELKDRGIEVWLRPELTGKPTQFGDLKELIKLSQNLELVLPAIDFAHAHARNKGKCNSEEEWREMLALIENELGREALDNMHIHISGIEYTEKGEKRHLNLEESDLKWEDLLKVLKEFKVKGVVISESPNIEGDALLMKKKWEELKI
Assay: SPR

Kd: 1 µM
B1: P. furiosus proliferating cell nuclear antigen (PfuPCNA), recombinant wild type (natural protein, Pyrococcus furiosus, UniProt O73947 1-249, looked up)
chain: MPFEIVFEGAKEFAQLIDTASKLIDEAAFKVTEDGISMRAMDPSRVVLIDLNLPSSIFSKYEVVEPETIGVNMDHLKKILKRGKAKDTLILKKGEENFLEITIQGTATRTFRVPLIDVEEMEVDLPELPFTAKVVVLGEVLKDAVKDASLVSDSIKFIARENEFIMKAEGETQEVEIKLTLEDEGLLDIEVQEETKSAYGVSYLSDMVKGLGKADEVTIKFGNEMPMQMEYYIRDEGRLTFLLAPRVEE
